Measured values: patent publication US20210115154A1 (Chugai, published 2021)

T1: human MASP-1 (human, UniProt P48740 20-699)
T1 sequence: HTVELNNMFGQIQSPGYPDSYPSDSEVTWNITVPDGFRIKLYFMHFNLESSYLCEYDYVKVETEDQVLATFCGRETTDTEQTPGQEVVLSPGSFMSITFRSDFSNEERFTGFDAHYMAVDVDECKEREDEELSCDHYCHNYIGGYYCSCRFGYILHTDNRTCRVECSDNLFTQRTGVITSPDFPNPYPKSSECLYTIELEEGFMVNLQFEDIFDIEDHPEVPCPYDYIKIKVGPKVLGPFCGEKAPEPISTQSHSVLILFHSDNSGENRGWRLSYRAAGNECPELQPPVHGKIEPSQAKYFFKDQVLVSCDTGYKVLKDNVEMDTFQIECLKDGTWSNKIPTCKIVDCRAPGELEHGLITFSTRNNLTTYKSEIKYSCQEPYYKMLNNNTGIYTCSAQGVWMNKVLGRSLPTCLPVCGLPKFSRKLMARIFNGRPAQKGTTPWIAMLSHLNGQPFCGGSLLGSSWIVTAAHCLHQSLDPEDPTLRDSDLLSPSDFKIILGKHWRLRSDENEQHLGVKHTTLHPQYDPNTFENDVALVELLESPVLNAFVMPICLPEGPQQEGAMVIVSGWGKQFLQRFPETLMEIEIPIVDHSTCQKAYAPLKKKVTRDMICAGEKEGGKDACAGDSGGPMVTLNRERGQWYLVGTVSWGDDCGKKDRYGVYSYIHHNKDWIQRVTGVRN

T2: Human MASP-3 (CCP1-CCP2-SP S664A) (human, labelled with NHS-PEG4-Biotin (sites not given))
T2 construct: Biotinylated for the cross-reactivity ELISA; also called N-terminally Flag-tagged human MASP-3 (CCP1-CCP2-SP S664A); not shown: N-terminal Flag-tag
T2 chain: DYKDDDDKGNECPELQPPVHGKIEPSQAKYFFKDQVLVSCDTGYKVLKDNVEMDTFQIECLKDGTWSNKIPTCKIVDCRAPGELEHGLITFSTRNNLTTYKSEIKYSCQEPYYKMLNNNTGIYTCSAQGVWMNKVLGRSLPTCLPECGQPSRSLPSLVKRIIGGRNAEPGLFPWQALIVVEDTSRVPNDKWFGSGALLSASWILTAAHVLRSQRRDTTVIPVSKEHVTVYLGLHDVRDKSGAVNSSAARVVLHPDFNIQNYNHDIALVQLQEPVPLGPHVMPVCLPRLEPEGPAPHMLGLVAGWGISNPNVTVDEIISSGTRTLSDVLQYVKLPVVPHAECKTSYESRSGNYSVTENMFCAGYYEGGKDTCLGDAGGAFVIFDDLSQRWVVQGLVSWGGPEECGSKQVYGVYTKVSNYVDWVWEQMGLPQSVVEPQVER

T3: Human MASP-1 (CCP1-CCP2-SP S646A) (human, UniProt P48740 298-699, labelled with NHS-PEG4-Biotin (sites not given))
T3 construct: biotinylated for the ELISAs; also called N-terminally Flag-tagged human MASP-1 (CCP1-CCP2-SP S646A); not shown: N-terminal Flag-tag
T3 sequence: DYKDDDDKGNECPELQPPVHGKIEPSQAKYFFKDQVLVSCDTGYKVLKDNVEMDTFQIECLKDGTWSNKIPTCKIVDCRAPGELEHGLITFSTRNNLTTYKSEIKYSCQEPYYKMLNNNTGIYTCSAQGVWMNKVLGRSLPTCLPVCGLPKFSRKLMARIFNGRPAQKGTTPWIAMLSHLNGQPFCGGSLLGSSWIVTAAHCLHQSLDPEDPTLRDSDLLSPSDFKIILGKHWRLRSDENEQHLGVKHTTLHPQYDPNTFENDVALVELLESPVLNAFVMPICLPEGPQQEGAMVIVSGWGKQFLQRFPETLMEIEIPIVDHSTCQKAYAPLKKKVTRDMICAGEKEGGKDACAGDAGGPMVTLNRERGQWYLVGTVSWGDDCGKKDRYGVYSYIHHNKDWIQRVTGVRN

B1: MAS0177hh (antibody, human IgG4 S228P, kappa, V domains shown)
VH: QSVEESGGRLVTPGTPLTLTCTASGFSLSSAYMNWVRQAPGKGLEWIGIIYASGSTWYASWAKGRFTISKTSTTVDLKITSPTTEDTATYFCARDDYGTADLWGPGTLVTVSS
VL: AVVLTQTASPVSAPVGGTVTIKCQASQSIGSSLAWYQQKPGQSPKLLIYGASTLVSGVSSRFSGSRSGTEFSLTISDLECADAATYYCQNYYLSSSSADRRTFGGGTKVEIKR
notes: Rabbit/human chimeric antibody: rabbit variable regions recombined with F760G4 and kOMTC constant regions; also called anti-MASP-1 chimeric mAb MAS0177hh
B2: MAS0102dd (antibody, human IgG4 S228P, kappa, V domains shown)
VH: QSVEESGGRLVTPGTPLTLTCTVSGFSLSSYAMSWVRQAPGKGLEWIGIITNLDNTYYANWAKGRFTISKTSTTVDLKITSPTTEDTAAYLCARERIKRKYSYDDYGGWAFDPWGPGTLVTVSS
VL: QVLTQTPSSVSGPVGGTVTINCQAIENIYRSLAWYQQKPGQPPKLLIYDTSDLASGVPSRFSGSGSGTEYTLTISGVQCDDAATYYCQSYYYSSVTYNAFGGGTKVEIKR
notes: Rabbit/human chimeric antibody: rabbit variable regions recombined with F760G4 and kOMTC constant regions; also called anti-MASP-1 chimeric mAb MAS0102dd
B3: MAS0114bb (antibody, human IgG4 S228P, kappa, V domains shown)
VH: QSVEESGGRLVTPGTPLTLTCTASGFDINNYAIHWVRQAPGEGLEWIGYIYARSGVTWYASWVKGRFTISKTSTTVDLKMTSLTTEDTATYFCARVLAGGGYANTGLSLWGPGTLVTVSS
VL: DIVMTQTPSSVSAAVGGTVTIKCQASQNIGYSSAWYQQKPGQRPKLMIYGASTLASGVPSRFSGSGSGTEYTLTISGVQCDDAATYYCQSNYISSGSVDGTFGGGTKVEIKR
notes: Rabbit/human chimeric antibody: rabbit variable regions recombined with F760G4 and kOMTC constant regions; also called anti-MASP-1 chimeric mAb MAS0114bb
B4: MAS0116aa (antibody, human IgG4 S228P, kappa, V domains shown)
VH: QSLEESGGRLVTPGTPLTLTCTASGFSLSSCYMSWVRQAPGEGLEWIGTIYTGSGATYYASWAKGRFTVSITSTTVDLKITSPTTEDTATYFCARAIYPGSSSSNLCAFDLWGPGTLVTVSS
VL: QVLTQTPASVSAAVGGTVTINCQASQSVYDNNWLAWYQQKPGQPPKLLIYQASSLASGVPSRFKGSGSGAQFTLTISDLECDDAATYFCQGYYAGVLYSFGGGTKVEIKR
notes: Rabbit/human chimeric antibody: rabbit variable regions recombined with F760G4 and kOMTC constant regions; also called anti-MASP-1 chimeric mAb MAS0116aa
B5: MAS0141aa (antibody, human IgG4 S228P, kappa, V domains shown)
VH: QSVEESGGRLVTPGTPLTLTCTASGFSLINYYMTWVRQAPGKGLEWIGIINTDGGTYYASWAKGRFTISRTSTTVDLKMTSLTTEDTATYFCARGVFTGGWTGMRTNLWGPGTLVTVSS
VL: DVVMTQTPASVEAAVGGTVTIKCQASEDIYILLAWYQQKPGQPPKLLIYAASNLESGVPSRFKGSGSGTEFTLTISDLECADAATYYCQCTYGSSSSNAFGGGTKVEIKR
notes: Rabbit/human chimeric antibody: rabbit variable regions recombined with F760G4 and kOMTC constant regions; also called anti-MASP-1 chimeric mAb MAS0141aa
B6: MAS0154dd (antibody, human IgG4 S228P, kappa, V domains shown)
VH: QSVEESGGRLVTPGTPLTLTCTVSGFSLSNYNMGWVRQAPGEGLEYIGIISSQGDIYYATWAKGRFTISKTSTTVDLKITSPTTEDTATYFCARARHVGSAADSYFHLWGLGTLVTVSS
VL: AVVLTQTASPVSAAVGGTVTINCQASEEIYRNLAWYQQKPGQRPKLLIYGASNLASGVPSRFSGSGSGTEYTLTISDLECADAATYYCQRYAWGKNSADGNTFGGGTKVEIKR
notes: Rabbit/human chimeric antibody: rabbit variable regions recombined with F760G4 and kOMTC constant regions; also called anti-MASP-1 chimeric mAb MAS0154dd

Target: T1, human MASP-1
Experiment: cell-based or functional assay

| Binder | IC50 of inhibition of human C4c deposition (C4c ELISA, normal human serum on mannan) |
| --- | --- |
| B1 | 3.29 µg/mL |
| B2 | 0.29 µg/mL |
| B3 | 0.14 µg/mL |
| B4 | 0.47 µg/mL |
| B5 | 0.45 µg/mL |
| B6 | 0.11 µg/mL |

Target: T2, Human MASP-3 (CCP1-CCP2-SP S664A)
Experiment: ELISA, antibody captured by goat anti-human IgG, 8 nM biotinylated antigen, streptavidin-HRP
Protocol: (§1) ELISA assay was used to check the cross-reactivity of the chimeric monoclonal antibodies generated in 3.1 against human MASP-1 and human MASP-3. Goat anti-human IgG polyclonal antibody (Thermo Scientific, H10500) was diluted to 1 micro g/ml with PBS (-) and added to 384-well MAXISorp plates (Nunc, Cat No. 164688). The plates were incubated for 1 hour at room temperature, and blocked with Blocking One (Nacalai Tesque, Cat No. 03953-95) diluted 5 times. The plates were incubated for 1 hour, washed, and anti-MASP-1 antibody was added and incubated for 1 hour. Human MASP-1 (CCP1-CCP2-SP S646A) or human MASP-3 (CCP1-CCP2-SP S664A) was labelled with NHS-PEG4-Biotin (PIERCE, Cat No. 21329). After incubation, the plates were washed and 8 nM of labeled antigen was added and incubated for 1 hour. After incubation, the plates were washed and Streptavidin-HRP conjugate (Thermo Scientific 21130) were added. After 1 hour incubation, binding of biotinylated antigen was detected by the addition of ABTS (KPL, Cat No. 50-66-06). Anti-MASP-1 monoclonal antibodies listed in Table 5 were selected as MASP-1 specific antibodies and used for further analysis.

| Binder | absorbance at 405 nm after background subtraction (absorbance at 405 nm) | absorbance at 405 nm after background subtraction |
| --- | --- | --- |
| B1 | 0.388 |  |
| B2 |  | -0.027 absorbance at 405 nm |
| B3 |  | -0.068 absorbance at 405 nm |
| B4 |  | 0.055 absorbance at 405 nm |
| B5 |  | -0.147 absorbance at 405 nm |
| B6 |  | 0.078 absorbance at 405 nm |

Target: T3, Human MASP-1 (CCP1-CCP2-SP S646A)
Experiment: as above
Protocol: as §1

| Binder | absorbance at 405 nm after background subtraction |
| --- | --- |
| B1 | 0.898 absorbance at 405 nm |
| B2 | 1.98 absorbance at 405 nm |
| B3 | 1.79 absorbance at 405 nm |
| B4 | 1.72 absorbance at 405 nm |
| B5 | 1.51 absorbance at 405 nm |
| B6 | 1.95 absorbance at 405 nm |
